The chains are these.
B1: XBR2-401 (mAb003) (antibody, human IgG1, V domains shown)
VH: QSVKESEGGLFKPTDTLTLTCTVSGFSLSSYGVTWVRQAPGSGLEWIGYINTAGNTYYASWAKSRSTITRNTNENTVTLKMTSLTAADTATYFCARDWTSLNIWGPGTLVTVSS
VL: DPMLTQTPSSTSTAVGDTVTIKCQASQSISSDLSWYQQKPGQRPKLLIYQASTLASGVPSRFKGSGYGTEYTLTISGVQREDAAIYYCLGGYADASYRTAFGGGTKLEIK
notes: Full-length chimeric rabbit/human IgG1 (kappa) with C-terminal tags HC: LPETG-Strep, LC: G5SLPETG-Strep
B2: ERR2-Top35 (mAb130) (antibody, V domains shown)
VH: QSVKESEGGLFKPMDTLTLTCTVSGFSLNTYGVSWVRQAPGNGLEWIGAVGSSGATNYASWAKSRSTITRNTNENTVTLKMTSLTAADTATYFCARDGYYSSGWGPYFSIWGPGTLVTVSS
VL: SFVLTQPASVQVNLGQTVSLTCTAETLRSSYASWYQQKPGQAPVLLIYRDTSRPSGVPDRFSGSSSGNTATLTISGAQAGDEADYYCATSDGSGSRYYVFGGGTQLTVTG
B3: ERR2-317 (mAb006) (antibody, human IgG1, V domains shown)
VH: QSLEESGGRLVTPGTPLTLTCTASGFSLSSYDMIWVRQAPGKGLEYIGIINAGGNTYYASWAKGRFTISRTSTTVDLKMTSPTTEDTATYFCARGSSWTGDIWGPGTLVTVSS
VL: DPVLTQTPSSTSAAVGGTVTIKCQASQSISSYLSWYQQKPGQPPKQLIYAASTLASGVPSRFKGSGSGTEYTLTISGVQREDAATYYCLGGYASASYQTAFGGGTKVEIK
notes: Full-length chimeric rabbit/human IgG1, human IgH-gamma1 and IgL-kappa constant regions; C-terminal tags HC: LPETG-Strep, LC: G5SLPETG-Strep
B4: XBR2-327 (mAb007) (antibody, human IgG1, V domains shown)
VH: QEQLKESGGGLFKPTDTLTLTCTVSGFSLSSGAISWVRQAPGNGLEYIGFVNSLGNTYYANWAKSRSAITRNTNENTVTLKMTSLAAADTATYFCAKDYGNWAFDPWGPGTLVTVSS
VL: B3 VL with T11V, T20A, K22N, Q46L, A50G, T53K, K63S, Q98R, V107L
notes: as for B3
B5: ERR2-308 (mAb037) (antibody, human IgG1, V domains shown)
VH: QEQLEESGGRLVTPGTPLTLTCAVSGFSLSNYAMGWVRQAPGEGLEYIGWISAGGGAYYASWVNGRFTISKTSSTVDLKMTSLTAADTATYFCARGASNGCDLWGPGTLVTVSS
VL: DPMLTQTPSSVSAVVGGTVTIKCQASQSITSWLSWYQQKPGQPPKLLIYGASHLASGVPSRFKGSGYGTEFTLTISGIQREDAATYYCLGGYSNSDIVFGGGTELEIL
notes: as for B3
B6: ERR2-316 (mAb005) (antibody, human IgG1, V domains shown)
VH: QKQLVESGGRLVTPGGSLTLTCTVSGFSLSKYGVSWVRQAPGSGLEYIGTIGGSGTSYYASWAKSRSTITRNTNLNTVTLKMTSLTAADTATYFCARYFGWNTGFDIWGPGTLVTISS
VL: DPVMTQTPSSVSEPVGGTVTIKCQASQSISNALAWYQQKPGQPPKRLIYKASTPASGVPSRFKGSRSGTEYTLTISGVQREDAATYYCLGFSVVSNDGWAFGAGTNVEIK
notes: Full-length chimeric rabbit/human IgG1, human IgH-gamma1 and IgL-kappa constant regions; C-terminal tags HC: LPETG-Strep, LC: G5SLPETG-Strep; also called mAb0005
B7: chimeric rabbit/human Fab XBR2-TOP9 (Fab, V domains shown)
VH: QSVEESRGRLVTPGTPLTLICTVSGIDLSSYNIQWVRQAPGKGLEYIGYINTDGSAYYASWAKGRFTISKTSTTVDLKITSPTTEDTATYFCARGGYASGFNLWGPGTLVTISS
VL: DVVMTQTPSSTSAAVGGTVTIKCQASQNIGPWLSWYQQKPGQPPKQLIYAASTLASGVPSRFKGSGSGTDYTLTISGVQREDAATYYCLGWHSWSDDGWAFGAGTNVEIK
B8: chimeric rabbit/human Fab ERR2-317 (Fab, V domains shown)
VH: B3 VH
VL: B3 VL
B9: chimeric rabbit/human Fab ERR2-TOP2 (Fab, V domains shown)
VH: QSLEESGGRLVTPGTPLTLTCTVSGFSLSSYAISWVRQAPGKGLEWIGTIGTRGDTAYANWAKGRFTISKTSTTVTLKMTSPTTEDTATYFCARELVAGGGSDLWGPGTLVTVSS
VL: DVVMTQTPSSVSAVVGGTVTIKCQASQSITSWLSWYQQKPGQPPKLLIYGASHLASGVPSRFKGSGYGTEFTLTISGIQREDAATYYCLGGYLSASYQTAFGGGTKVEIK
B10: chimeric rabbit/human Fab ERR2-316 (Fab, V domains shown)
VH: B6 VH
VL: B6 VL
B11: chimeric rabbit/human Fab XBR2-TOP72 (Fab, V domains shown)
VH: QEQLEESGGRLVTPGTPLTLTCTVSGIDLSSNAMSWVRQAPGKGLEYVGFINGGGGVHYASWARGRFTISKTSTTVDLKITSPTTEDTATYFCARAGTTYYTSFNLWGPGTLVTISS
VL: QFVLTQSPSASAALGSSAKLTCTLSSAHKTYTIAWYQQQQGEAPRLLMMLRTDGSYTKGTGVPDRFSGSSSGADRYLIISSVQADDAAGYYCGADYSGGYVFGGGTQLTVTG

As a reminder, the IC50 is the midpoint of a concentration-inhibition curve. In general, Kd refers to the concentration at which binding is half-saturated. For orientation: koff means a measure of how fast the partners let go of each other. One may read the kon as a measure of how fast the partners come together.

Residue numbers refer to the chain shown, from its start.

T5 sequence (Q9Z138 other isoform, or with tags, fused parts or gaps): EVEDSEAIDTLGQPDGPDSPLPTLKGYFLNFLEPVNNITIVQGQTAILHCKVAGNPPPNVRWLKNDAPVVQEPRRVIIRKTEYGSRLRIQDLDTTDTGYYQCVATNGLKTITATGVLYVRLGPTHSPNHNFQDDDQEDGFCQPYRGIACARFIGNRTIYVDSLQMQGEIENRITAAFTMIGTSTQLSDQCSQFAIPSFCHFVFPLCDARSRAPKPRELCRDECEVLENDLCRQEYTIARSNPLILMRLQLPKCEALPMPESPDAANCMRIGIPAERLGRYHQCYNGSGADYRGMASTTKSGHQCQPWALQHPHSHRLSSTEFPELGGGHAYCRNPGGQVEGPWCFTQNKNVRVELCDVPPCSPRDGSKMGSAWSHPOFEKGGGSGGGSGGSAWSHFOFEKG
T2 sequence (P02769 25-607 limits assumed): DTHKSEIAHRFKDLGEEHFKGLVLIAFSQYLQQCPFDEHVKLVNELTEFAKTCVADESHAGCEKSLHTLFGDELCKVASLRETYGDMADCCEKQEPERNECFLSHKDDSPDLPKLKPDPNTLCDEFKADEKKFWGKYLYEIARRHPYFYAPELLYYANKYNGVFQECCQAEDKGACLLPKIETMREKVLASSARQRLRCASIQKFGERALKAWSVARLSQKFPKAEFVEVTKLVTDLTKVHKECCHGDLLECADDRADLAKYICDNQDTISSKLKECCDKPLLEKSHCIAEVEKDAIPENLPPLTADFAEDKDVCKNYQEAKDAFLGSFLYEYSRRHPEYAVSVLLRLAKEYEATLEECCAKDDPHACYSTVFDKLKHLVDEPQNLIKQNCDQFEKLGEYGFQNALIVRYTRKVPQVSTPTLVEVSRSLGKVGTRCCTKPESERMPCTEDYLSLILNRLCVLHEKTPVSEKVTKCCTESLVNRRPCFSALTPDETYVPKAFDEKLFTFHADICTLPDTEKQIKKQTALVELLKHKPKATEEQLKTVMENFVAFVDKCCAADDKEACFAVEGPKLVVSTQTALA

The first experiment has as its target T1, anti-human Fc (Jackson ImmunoResearch, 109-006-008).
T1 construct: Coated on a control plate to capture the chimeric IgG1 antibodies through their human Fc; also called IgG
Nature of the experiment: ELISA, IgG titrated on coated anti-human Fc; fit printed as IC50. For orientation: ELISA stands for enzyme-linked immunosorbent assay.
As for B1, the midpoint of inhibition, the IC50, lay at 0.0856 µg/mL.
The molecule B2 registered an IC50 of 0.0419 µg/mL.
Same read-out and setting: with B3 the figure was 0.0391 µg/mL.
Molecule B4 registered an IC50 of 0.0433 µg/mL.
On the same count and under the same terms, the value for B5 was 0.0336 µg/mL; that for B6 was 0.04 µg/mL.

A further experiment has as its target T1, anti-human Fc (Jackson ImmunoResearch, …). The experiment is described as above. This is another data set of the same source.
For B1, the half-maximal inhibitory concentration (IC50) is 0.0068 µg/mL.
Same read-out and setting: with B2 the figure was 0.0143 µg/mL; with B3, 0.0084 µg/mL; with B4, 0.0102 µg/mL.
Turning to B5, the IC50 was determined as 0.0167 µg/mL.
The molecule B6 came in with an IC50 of 0.0112 µg/mL.

Another experiment addresses T2, BSA (bovine, UniProt P02769).
T2 construct: also called bovine serum albumin
Nature of the experiment: ELISA, coated antigen 100 ng/well, anti-His HRP, absorbance 405 nm.
On to B7, for which the binding result was “no binding (tested: 100 ng/50 µL)”.
On the same count and under the same terms, the value for B8 was “no binding (tested: 100 ng/50 µL)”; that for B9 was “no binding (tested: 100 ng/50 µL)”; that for B10 was “no binding (tested: 100 ng/50 µL)”.
With B11, the binding result is listed as “no binding (tested: 100 ng/50 µL)”.

For a further experiment, the target named is T3, hFc-hROR1 (human, UniProt Q01973 30-403, limits assumed).
T3 construct: also called ROR1 (ELISA control); not shown: human Fc (hFc) of pCEP4-hFc-hROR1 (Yang et al., 2011)
T3 sequence (Q01973 30-403 limits assumed): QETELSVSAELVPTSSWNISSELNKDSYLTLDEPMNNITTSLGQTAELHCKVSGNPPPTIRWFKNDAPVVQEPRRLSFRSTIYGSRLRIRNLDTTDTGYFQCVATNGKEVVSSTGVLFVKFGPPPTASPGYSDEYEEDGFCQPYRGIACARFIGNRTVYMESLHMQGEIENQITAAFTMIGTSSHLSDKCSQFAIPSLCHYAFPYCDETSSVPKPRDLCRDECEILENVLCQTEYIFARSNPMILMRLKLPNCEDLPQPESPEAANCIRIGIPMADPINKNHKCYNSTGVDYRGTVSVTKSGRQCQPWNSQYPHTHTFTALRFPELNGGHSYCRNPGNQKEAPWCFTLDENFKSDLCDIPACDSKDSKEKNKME
The description is as above.
On to B7, for which the binding result is listed as “no binding (tested: 100 ng/50 µL)”.
B8: the binding result is “no binding (tested: 100 ng/50 µL)”.
In the case of B9, the binding result is listed as “no binding (tested: 100 ng/50 µL)”.
As for B10, the binding result is “no binding (tested: 100 ng/50 µL)”.
For the molecule B11, the binding result was “no binding (tested: 100 ng/50 µL)”.

A further experiment concerns the target T4, recombinant human twin strep-tagged ROR2 extracellular domain (human, UniProt Q01974 34-403).
T4 construct: extracellular domain; Made in HEK293T, Streptactin purified; also called Human ROR2-TwinStrep; human ROR2
The experiment is described as follows: ELISA, IgG titrated on coated twin-strep human ROR2 ECD; fit printed as IC50.
B1: the IC50 came to 0.0505 µg/mL.
Same read-out and setting: with B2 the figure was 0.0244 µg/mL; with B3, 1.35 µg/mL.
On the same count and under the same terms, the value for B5 was 0.467 µg/mL.
With B6, the half-inhibitory concentration (IC50) worked out at 0.0299 µg/mL.

Another experiment has as its target T5, recombinant murine twin strep-tagged ROR2 extracellular domain (mouse, UniProt Q9Z138 34-403).
T5 construct: extracellular domain; Made in HEK293T, Streptactin purified; also called mouse ROR2; murine ROR2
Nature of the experiment: ELISA, IgG titrated on coated twin-strep mouse ROR2 ECD; fit printed as IC50.
For the molecule B2, the 50% inhibitory concentration (IC50) is 0.0173 µg/mL.

A further experiment concerns the target T4, recombinant human twin strep-tagged …. The experiment is described as follows: ELISA, IgG titrated on coated twin-strep human ROR2 ECD; fit printed as IC50. This is another data set of the same source.
With B1, the half-inhibitory concentration (IC50) amounted to 0.0419 µg/mL.
For the molecule B2, the IC50 is 0.0462 µg/mL.
Still for that read-out and setting: the value for B3 was 0.0168 µg/mL; that for B4 was 0.00057 µg/mL.
With B5, the half-maximal inhibitory concentration (IC50) is 0.0186 µg/mL.
On the same count and under the same terms, with B6 the figure was 0.0407 µg/mL.

The target of a further experiment is T6, recombinant cynomolgus twin strep-tagged ROR2 extracellular domain (cynomolgus monkey, UniProt A0A7N9D5U8 34-403).
T6 construct: extracellular domain; Made in HEK293T, Streptactin purified; also called cynomolgus ROR2; cynomolgus ROR2-TwinStrep
Nature of the experiment: ELISA, IgG titrated on coated twin-strep cynomolgus ROR2 ECD; fit printed as IC50.
For the molecule B1, the IC50 came out at 0.0433 µg/mL.
Same read-out and setting: the value for B2 was 0.0531 µg/mL; that for B3 was 0.019 µg/mL.
Same read-out and setting: with B5 the figure was 0.0046 µg/mL; with B6, 0.044 µg/mL.

The target in the next experiment is T4, recombinant human twin strep-tagged …. Nature of the experiment: SPR, Biacore T200, IgG captured by anti-human Fcγ, ROR2-TwinStrep as analyte, 1:1 Langmuir. In general terms: SPR reads the build-up and loss of mass on a sensor chip optically.
On to B1, for which the Kd is at most 10.2 nM.
For B5, the Kd turned out to be 11.2 nM, the dissociation rate constant (koff) worked out at 0.000153 s⁻¹ and the association rate constant (kon) turned out to be 13700 M⁻¹ s⁻¹.

In a further experiment the target is T6, recombinant cynomolgus twin …. The experiment is described as above.
Take B1: the dissociation constant Kd was at most 1.1 nM.
In the case of B5, the Kd was 5.4 nM, the dissociation rate constant (koff) was 0.000127 s⁻¹ and the kon came out at 23800 M⁻¹ s⁻¹.

Another experiment addresses T7, full-length human ROR2 on cells (human, UniProt Q01974 34-943).
T7 construct: whole, on cells; the cells are named under assay; In the Western blot it is denatured; also called hROR2; cell surface human ROR2
The experiment is described as follows: flow cytometry, 63-12 cells expressing hROR2, Fab 1 µg/100 µL, anti-His Alexa Fluor 488. (In flow cytometry, cells or beads pass a laser one at a time.)
As to B7, the binding result is “binds”.
On the same count and under the same terms, with B9 the entry was “binds”.
Still for that read-out and setting: the value for B11 was “binds”.

For another experiment, the target named is T5, recombinant murine twin strep-tagged …. The experiment is described as follows: ELISA on coated twin-strep mouse ROR2 ECD (FIG. 14B); patent's own reading of the ELISA curves on coated mouse ROR2 (FIG. 14, panel B).
Turning to B3, the binding result is on record as “no binding (tested: 0.5 µg/mL highest concentration)”.
Consider B5, for which the binding result is “no binding (tested: 0.5 µg/mL highest concentration)”.
Same read-out and setting: with B6 the entry was “no binding (tested: 0.5 µg/mL highest concentration)”.

The record behind these values is US20190031754A1 (Scripps Research, published 2019).
